Test results from PMC3511649.

How the values were obtained:
[1] = molecular target: OG488-EGR labeled wild-type factor IXa (human) (UniProt P00740); experiment: fluorescence polarisation
[2] = molecular target: OG488-EGR labeled Gla-domainless factor IXa (GD-FIXa) (human) (UniProt P00740); experiment: fluorescence polarisation

Sequence of UniProt P00740 (P00740 47-191, chain 1 of 2): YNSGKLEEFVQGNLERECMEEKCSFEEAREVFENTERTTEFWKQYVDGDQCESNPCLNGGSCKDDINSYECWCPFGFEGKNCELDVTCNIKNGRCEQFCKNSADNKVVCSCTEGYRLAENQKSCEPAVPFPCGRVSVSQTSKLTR
Sequence of UniProt P00740 (P00740 227-461, chain 2 of 2): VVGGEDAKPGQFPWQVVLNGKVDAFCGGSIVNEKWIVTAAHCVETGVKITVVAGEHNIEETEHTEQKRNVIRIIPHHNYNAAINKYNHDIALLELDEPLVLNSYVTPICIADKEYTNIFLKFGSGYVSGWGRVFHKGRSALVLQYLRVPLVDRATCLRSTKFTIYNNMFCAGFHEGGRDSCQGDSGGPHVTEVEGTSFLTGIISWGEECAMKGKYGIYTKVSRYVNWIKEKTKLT

Kd [1]: 1.5 nM
Kd [2]: 310 nM
Substance: human recombinant factor VIIIa (complex)
